Reference: patent US20130230517A1

Target: Purified recombinant HuFCRN/B2MG, biotinylated (human) (UniProt P55899)
Experiment: BLI (ForteBio Octet); biotinylated HuFCRN/B2MG on SA biosensors

Chain of UniProt P55899 (P55899 24-297 limits assumed, chain 1 of 2): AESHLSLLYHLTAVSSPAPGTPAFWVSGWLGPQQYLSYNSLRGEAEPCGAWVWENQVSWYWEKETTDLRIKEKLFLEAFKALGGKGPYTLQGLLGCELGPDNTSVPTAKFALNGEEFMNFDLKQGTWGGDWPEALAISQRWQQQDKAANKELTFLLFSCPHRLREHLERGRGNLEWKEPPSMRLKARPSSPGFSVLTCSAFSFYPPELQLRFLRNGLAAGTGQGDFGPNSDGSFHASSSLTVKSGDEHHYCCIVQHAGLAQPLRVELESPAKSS
Chain of UniProt P55899 (P61769 21-119 limits assumed, chain 2 of 2, further chain): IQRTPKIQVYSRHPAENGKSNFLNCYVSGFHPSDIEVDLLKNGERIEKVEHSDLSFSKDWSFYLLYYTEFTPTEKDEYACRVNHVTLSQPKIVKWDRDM

**Q.** With “RITUXAN (Genentech), non-fused anti-CD20Ab (antibody)” as the substance, how does the Kd read?
**A.** 69.7 nM
